B1: NAP1L1 (protein)
chain: ADIDNKEQSELDQDLDDVEEVEEEETGEETKLKARQLTVQMMQNPQILAALQERLDGLVETPTGYIESLPRVVKRRVNALKNLQVKCAQIEAKFYEEVHDLERKYAVLYQPLFDKRFEIINAIYEPTEEECEWKPDEEDEISEELKEKAKIEDEKKDEEKEDPKGIPEFWLTVFKNVDLLSDMVQEHDEPILKHLKDIKVKFSDAGQPMSFVLEFHFEPNEYFTNEVLTKTYRMRSEPDDSDPFSFDGPEIMGCTGCQIDWKKGKNVTLKTIKKKQKHKGRGTVRTVTKTVSNDSFFNFFAPPEVPESGDLDDDAEAILAADFEIGHFLRERIIPRSVLYFTGEAIEDDDDDYDEEGEEADEEGEEEGDEENDPDYDPKKDQNPAEC
B2: iNLS-CTD: 3×FLAG tag nls construct encoding terminal 86 amino acids of DUX4 (aa 339-424), SEQ ID NOS: 12 and 13 (protein)
chain: MDYKDHDGDYKDHDIDYKDDDDKPKKKRKVNASASARQGQMQGIPAPSQALQEPAPWSALPCGLLLDELLASPEFLQQAQPLLETEAPGELEASEEAASLEAPLSEEEYRALLEEL
modifications: 3xFLAG tag and NLS
B3: G3BP2 (protein)
chain: VMEKPSPLLVGREFVRQYYTLLNKAPEYLHRFYGRNSSYVHGGVDASGKPQEAVYGQNDIHHKVLSLNFSECHTKIRHVDAHATLSDGVVVQVMGLLSNSGQPERKFMQTFVLAPEGSVPNKFYVHNDMFRYEDEVFGDSEPELDEESEDEVEEEQEERQPSPEPVQENANSGYYEAHPVTNGIEEPLEESSHEPEPEPESETKTEELKPQVEEKNLEELEEKSTTPPPAEPVSLPQEPPKAFSWASVTSKNLPPSGTVSSSGIPPHVKAPVSQPRVEAKPEVQSQPPRVREQRPRERPGFPPRGPRPGRGDMEQNDSDNRRIIRYPDSHQLFVGNLPHDIDENELKEFFMSFGNVVELRINTKGVGGKLPNFGFVVFDDSEPVQRILIAKPIMFRGEVRLNVEEKKTRAARERETRGGGDDRRDIRRNDRGPGGPRGIVGGGMMRDRDGRGPPPRGGMAQKLGSGRGTGQMEGRFTGQRR
B4: NONO (protein, UniProt Q15233 1-471, looked up)
Non-POU domain-containing …: MQSNKTFNLEKQNHTPRKHHQHHHQQQHHQQQQQQPPPPPIPANGQQASSQNEGLTIDLKNFRKPGEKTFTQRSRLFVGNLPPDITEEEMRKLFEKYGKAGEVFIHKDKGFGFIRLETRTLAEIAKVELDNMPLRGKQLRVRFACHSASLTVRNLPQYVSNELLEEAFSVFGQVERAVVIVDDRGRPSGKGIVEFSGKPAARKALDRCSEGSFLLTTFPRPVTVEPMDQLDDEEGLPEKLVIKNQQFHKEREQPPRFAQPGSFEYEYAMRWKALIEMEKQQQDQVDRNIKEAREKLEMEMEAARHEHQVMLMRQDLMRRQEELRRMEELHNQEVQKRKQLELRQEEERRRREEEMRRQQEEMMRRQQEGFKGTFPDAREQEIRMGQMAMGGAMGINNRGAMPPAPVPAGTPAPPGPATMMPDGTLGLTPPTTERFGQAATMEGIGAIGGTPPAFNRAAPGAEFAPNKRRRY
B5: DDX3X (protein)
chain: SHVAVENALGLDQQFAGLDLNSSDNQSGGSTASKGRYIPPHLRNREATKGFYDKDSSGWSSSKDKDAYSSFGSRSDSRGKSSFFSDRGSGSRGRFDDRGRSDYDGIGSRGDRSGFGKFERGGNSRWCDKSDEDDWSKPLPPSERLEQELFSGGNTGINFEKYDDIPVEATGNNCPPHIESFSDVEMGEIIMGNIELTRYTRPTPVQKHAIPIIKEKRDLMACAQTGSGKTAAFLLPILSQIYSDGPGEALRAMKENGRYGRRKQYPISLVLAPTRELAVQIYEEARKFSYRSRVRPCVVYGGADIGQQIRDLERGCHLLVATPGRLVDMMERGKIGLDFCKYLVLDEADRMLDMGFEPQIRRIVEQDTMPPKGVRHTMMFSATFPKEIQMLARDFLDEYIFLAVGRVGSTSENITQKVVWVEESDKRSFLLDLLNATGKDSLTLVFVETKKGADSLEDFLYHEGYACTSIHGDRSQRDREEALHQFRSGKSPILVATAVAARGLDISNVKHVINFDLPSDIEEYVHRIGRTGRVGNLGLATSFFNERNINITKDLLDLLVEAKQEVPSWLENMAYEHHYKGSSRGRSKSSRFSGGFGARDYRQSSGASSSSFSSSRASSSRSGGGGHGSSRGFGGGGYGGFYNSDGYGGNYNSQGVDWWGN
B6: CIC-DUX4 fusion: Kitra-SRS CIC-DUX4 fusion protein containing the terminal 98 amino acids of DUX4, doxycycline inducible (protein)
chain: MDYKDHDGDYKDHDIDYKDDDDKPPKRMRREPKKKRKVNLEGTSGGILQKEFWRNRIQYNQSQKDILQSWFQHDPFPDKAAREQLAKEIGVPESNIQVWFKNYRVKQRKLDYKCFSEKDQTQGHDQSQHLTQEYLPKEARQKQTFITWTQKNRLVQAFERNPFPDIATRKKLAEQTGLQESRIQMWFQKQRSLYLKKSRMEPMNLLVDDPNERPDATVGWHPINLFLPTDSSHYFSCSHSSSGHETLPPVLPSTQAPWDPFRFHVSQGPNVMIMQPTQAVQEGEKSDQPLIIPNHLLTLPILTKDLDTPTPFWLQYQEEHQNHKEHSGSGVPQVKSHSQPEPEHREQQPLNLGQFDISNILQRWDEICQALLAEWEPLKGTH

Tests used:
[1] = system: proteins that co-immunoprecipitated with DUX4-CTD constructs expressed in MB135 myoblasts; test: LC-MS of proteins co-immunoprecipitated with DUX4-CTD (Table 1) and western validation; assay type: binding, human; design: key to 4. mL1dL2 + Dox + IFNG / 4. + IFNG mix / 4. longCTD + Dox + IFNG / 3. + IFNg + Dox longCTD / 3. + Dox longCTD / 3. + IFNG longCTD: peptide-spectrum matches (PSMs) per protein; conditions: kind of count not given; for 4. mL1dL2 + Dox + IFNG: LC-MS value per protein co-immunoprecipitated with DUX4-CTD construct mL1dL2 in MB135 myoblasts; for 4. + IFNG mix: LC-MS value per protein co-immunoprecipitated from MB135 myoblasts, + IFNG mix sample (no Dox)
Procedure, shortened: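 FLAG-tagged DUX4-CTD expressed in doxycycline-induced MB135 myoblasts, some also IFNG-treated; nuclear lysates in pH 7.4 NP-40 IP buffer were pre-cleared, then anti-FLAG immunoprecipitated 3 h at 4 °C. For LC-MS, FLAG-peptide elution, in-gel trypsin digest, Orbitrap analysis; proteins with ≥2 PSMs in both experiments categorised and ranked by total PSMs.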

[2] = system: interferon-stimulated genes IFIH1, ISG20, CXCL9, and CD74; test: IFNG induction of interferon-stimulated genes, RT-qPCR in MB135 cells with doxycycline-inducible transgenes; assay type: cell-based, human; conditions: MB135 cells, doxycycline-induced transgene, continuous protocol, IFNG 16 h
Procedure: All myoblast experiments were conducted in immortalized MB135 or MB200 myoblast cell lines (isolated from a control or FSHD2 subject, respectively cultured in Ham's F-10 Nutrient Mix (Gibco) supplemented with 15% fetal bovine serum (Hyclone), 100 U/100 μg/ml penicillin/streptomycin (Gibco), 1 μM dexamethasone (Sigma), and 10 ng/ml recombinant human basic fibroblast growth factor (PeproTech). To differentiate the myoblasts to myotubes, media was changed to DMEM supplemented with 10 μg/ml insulin (Sigma) and 10 μg/ml transferrin (Sigma). Cell lines containing doxycycline-inducible transgenes were additionally cultured with 2 μg/mL puromycin (Sigma). Transgenes were induced with 1 μg/mL of doxycycline (Sigma) for 4 hours prior to other treatments for a total of 20 hrs. The Kitra-SRS cells (RRID:CVCL_YI69) were provided by Dr. H. Otani and Osaka University (Nakai et al., 2019) and were cultured in DMEM supplemented with 10% fetal bovine serum (Hyclone) and 100 U/100 μg/ml penicillin/streptomycin (Gibco). Biological replicates consisted of independent but parallel experiments, such as simultaneously stimulating three cell culture plates with IFNγ. Technical replicates consisted of repeat measurements of the same biological sample, such as loading the same biological sample in triplicate for analysis by RT-qPCR.
Myoblasts were transfected with either (final concentrations) 10 μM 2′,3′-cGAMP (Sigma Aldrich), 2 μg/mL poly(I:C) (Invitrogen), or 1 μg/mL 3′ppp-dsRNA RIG-I ligand (Dan Stetson Lab, UW) using Lipofectamine 2000 according to manufacturer's protocol, or were stimulated with 1000U IFNβ (PeproTech) or 200 ng/ml IFNγ (R+D Systems) by addition directly to cell culture medium. After 16 hours of immune stimulation, RNA was collected from cells using the NucleoSpin RNA Kit (Macherey-Nagel) according to manufacturer's instructions. RNA samples were quantified by nanodrop and 1 μg of RNA per sample was treated with DNase I Amplification Grade (Thermo Fisher), and then synthesized into cDNA using the Superscript IV First-Strand Synthesis System, including oligo dT primers (Invitrogen). qPCR was run in 384-well plates on an Applied Biosystems QuantStudio 6 Flex Real-Time PCR System (ABI) and analyzed in Microsoft Excel.

Row | Molecule | 4. mL1dL2 + Dox + IFNG [1] | suppression of IFNG induction of ISGs (IFIH1, ISG20, CXCL9, CD74) [2] | 4. + IFNG mix [1] | other results
1 | B1 | 2 | – | – | –
2 | B2 | – | suppresses a portion of the IFNG-induced ISG genes, CXCL9 and CD74 | – | suppression of IFNG induction of ISGs (IFIH1, ISG20, CXCL9, CD74) ([2]; listed as iDUX4aa339-424): maintained ISG suppression, though not as strongly on the IFIH1 and ISG20 genes; suppression of IFNG induction of ISGs (IFIH1, ISG20, CXCL9, CD74) ([2]; listed as iNLS CTD): suppresses two of the four IFNG-induced
3 | B3 | 1 | – | – | –
4 | B4 | – | – | 1 | –
5 | B5 | 2 | – | 1 | –
6 | B6 | – | suppressed IFNγ-induction of ISGs IFIH1, CXCL9, and CD74, although not ISG20 | – | –

Source: patent US20250339531A1, “DUX4 POLYPEPTIDES AND NUCLEIC ACIDS FOR TREATING INFLAMMATORY AND AUTOIMMUNE CONDITIONS” (Fred Hutchinson Cancer Center, priority 2021, published 2025)
